Test results from patent publication US20240317873A1 (CITY OF HOPE, published 2024).
Like-named read-outs stand apart in the source and are kept apart here.

Legend:
[1] = molecular target: T1, human HVEM on the surface of cells (MM.1S myeloma cells, patient myeloma cells, Jurkat cells overexpressing … (human, UniProt Q92956 39-283)); assay: imaging mass cytometry, 166Er-conjugated antibody, bone marrow of a multiple myeloma patient
T1 construct: whole, on cells; also called CD270; TNFRSF14
T1 sequence (looked up): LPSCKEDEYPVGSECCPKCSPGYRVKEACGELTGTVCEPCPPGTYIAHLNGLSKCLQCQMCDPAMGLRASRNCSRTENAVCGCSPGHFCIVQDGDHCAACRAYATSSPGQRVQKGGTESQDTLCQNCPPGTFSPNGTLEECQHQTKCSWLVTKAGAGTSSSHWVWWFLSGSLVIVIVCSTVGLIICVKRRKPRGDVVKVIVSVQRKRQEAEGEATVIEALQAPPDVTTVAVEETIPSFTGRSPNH
Procedure: Mass cytometery was performed on bone marrow from a patient with multiple myeloma. […] HVEM-4, 5, 13, 17, and 22 were used for staining and the nucleus was counterterstained with Ir-191.

[2] = molecular target: T2, HVEM (SinoBio, monomeric) (human, UniProt Q92956 39-202); assay: SPR; the chip of this figure is not described, the only SPR set-up of the filing is HVEM (SinoBio, monomeric) on CM5
T2 construct: Bought protein immobilised on a CM5 chip by EDC/NHS coupling; also called hHVEM; TNFRSF14
T2 sequence (looked up): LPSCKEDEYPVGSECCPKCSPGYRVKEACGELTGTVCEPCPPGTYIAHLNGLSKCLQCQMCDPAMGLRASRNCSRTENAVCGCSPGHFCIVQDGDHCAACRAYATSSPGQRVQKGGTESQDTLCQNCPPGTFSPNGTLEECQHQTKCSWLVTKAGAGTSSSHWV

[3] = molecular target: T2, HVEM (SinoBio, monomeric); assay: as above; remark: listed apart in the source
[4] = molecular target: T1, human HVEM on the surface of cells …; assay: imaging mass cytometry, 166Er-conjugated antibody, mouse bone marrow engrafted with MM1.S cells
Procedure: Mass cytometry was performed on mice bone marrow tissues engrafted with MM1.S cells. […] HVEM-4, 5, 13, 17, and 22 were used for staining and the nucleus was counterterstained with Ir-191.

[5] = molecular target: T2, HVEM (SinoBio, monomeric); assay: SPR; the chip of this figure is not described, the only SPR set-up of the filing is HVEM (SinoBio, monomeric) on CM5; remark: listed apart in the source
[6] = molecular target: T3, HVEM recombinant protein (ELISA-based competition assay) (human, UniProt Q92956 39-202, limits assumed); assay: ELISA-based competition assay with recombinant proteins: binding of biotin-labelled HVEM to recombinant LIGHT (the blocked ligand), antibody titrated
T3 construct: The internal control used a biotin-labeled human HVEM; also called recombinant protein of HVEM; biotin-labeled human HVEM
T3 sequence (looked up): T2 sequence (looked up)

[7] = molecular target: T2, HVEM (SinoBio, monomeric); assay: SPR, HVEM immobilised on CM5 chip, Fab as analyte, 25 C

B1: anti-HVEM antibody clone 22 (antibody, human IgG1, kappa, V domains shown)
VH: QVQLQQSGAELVRPGASVTLSCKTSGYTFIHYEIHWVKQSPVHGLEWIGAIDPETGGTADNQKFKDKVTLTADKSSNTAYMDLRSLTSEDSAVYYCTRGDWVFAYWGQGTLVTVSA
VL: DVVMTQTPLSLPVSLGDQASISCRSSQSPLHSNGNTYLDWYLQKPGQSPKLLIYKVSNRFSGVPDRFSGSGSGTDFTLKISRVEAEDLGIYFCSQTTHVPPTFGGGTKLEIKR
notes: also called HVEM22; HVEM-22
binding result [1]: binds | binding result [2]: binds

B2: anti-HVEM antibody clone 17 (antibody, human IgG1, kappa, V domains shown)
VH: QIQLVQSGPELKKPGEPVKISCRASGYTLTNFGMNWVKQAPGKGLKWMGWINTYTGEPTYADDFKGRFAFSLETSASTAYLQINNLKNEDTATYFCARSFYGNEHYWGQGTSVTVSS
VL: QIVLTQSPAIMSASPGEKVTLTCSASSSVSSSYLFWYQQKPGSSPKLWIYSTSNLASGVPARFSGHGSGTSYSLTISSMEAEDAASYFCHQWSSYPYTFGGGTKLEIKR
notes: also called HVEM17; HVEM-17
binding result [3]: binds | binding result [4]: binds

B3: HVEM 23Ab (antibody, human IgG1, kappa, V domains shown)
VH: QIQLVQSGPELKKPGETVKISCKASGYTFTNFGMNWVKQAPGKALKWVGWINTYTGEPTYADDFKGRFAFSLETSATTAYLQISNLKNEDTATYFCARSYYFVTSEDYWGQGTSVTVSS
VL: QIVLTQSPAIMSASPGERVTMTCTARSSVSSSYLHWYQQKPGSSPKLWIYSTSNLASGVPARFSGSGSGASYSLTNSSMEAEDAATYYCHQYHRSTWTFGGGTKLEIKR
notes: also called anti-HVEM antibody clone 23
binding result [5]: no binding (tested: 100 nM)

B4: mcHVEM13 IgG (clone 13) (antibody, V domains shown)
VH: QIQLVQSGPELKKPGETVKISCKASGYILTNYGMNWVKQAPGKGLKWMGWINTYTGEPTYADAFKGRFAFSLETSASTAYLQINNLKNEDTATYFCARGYGNHWYFDYWGQGTSVTVSS
VL: QIVLTQSPAILSASPGEKVTMTCSASSSVSYMHWYQRKSGTSPKRWIYDTSKLASGVPARFSGSGSGTSYSLTISSMEAEDAATYYCQQWTSDPLTFGAGTKLELKR
notes: Murine chimeric IgG; The constant region of the tested IgG is not spelled out; Metal-conjugated in mass cytometry; also called anti-HVEM13; aHVEM13
IC50 (read off the curve) [6]: ~20 nM

B5: mcHVEM13 Fab (clone 13) (Fab, V domains shown)
VH: B4 VH
VL: B4 VL
notes: Murine chimeric Fab; also called new mcHVEM13 Fab; anti-hHVEM murine chimeric Fab clone 13
Kd [7]: 99.6 nM | koff [7]: 0.138 s⁻¹ | kon [7]: 1.38e+06 M⁻¹ s⁻¹
